Assay results taken from patent US20090029924.

T1: Pseudomonas exotoxin A (PEx), P11439
T1 chain: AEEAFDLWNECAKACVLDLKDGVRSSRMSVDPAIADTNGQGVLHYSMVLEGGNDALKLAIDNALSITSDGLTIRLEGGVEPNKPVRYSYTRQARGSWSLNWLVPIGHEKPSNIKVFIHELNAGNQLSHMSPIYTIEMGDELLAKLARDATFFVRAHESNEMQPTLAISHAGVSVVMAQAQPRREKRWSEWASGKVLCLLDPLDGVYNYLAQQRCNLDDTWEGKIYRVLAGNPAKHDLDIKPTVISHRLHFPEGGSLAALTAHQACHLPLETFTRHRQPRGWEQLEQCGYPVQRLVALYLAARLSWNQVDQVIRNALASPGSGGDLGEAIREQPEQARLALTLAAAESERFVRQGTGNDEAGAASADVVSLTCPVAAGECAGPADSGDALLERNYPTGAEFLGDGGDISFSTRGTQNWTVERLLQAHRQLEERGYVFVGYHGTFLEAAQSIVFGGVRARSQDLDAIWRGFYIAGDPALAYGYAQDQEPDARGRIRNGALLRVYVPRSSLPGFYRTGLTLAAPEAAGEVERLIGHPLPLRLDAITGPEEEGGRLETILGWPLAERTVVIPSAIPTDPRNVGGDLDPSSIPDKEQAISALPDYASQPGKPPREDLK

B1: Recombinant human PC7 (protein)
chain: SVHFNDPKYPQQWHLNNRRSPGRDINVTGVWERNVTGRGVTVVVVDDGVEHTIQDIAPNYSPEGSYDLNSNDPDPMPHPDVENGNHHGTRCAGEIAAVPNNSFCAVGVAYGSRIAGIRVLDGPLTDSMEAVAFNKHYQINDIYSCSWGPDDDGKTVDGPHQLGKAALQHGVIAGRQGFGSIFVVASGNGGQHNDNCNYDGYANSIYTVTIGAVDEEGRMPFYAEECASMLAVTFSGGDKMLRSIVTTDWDLQKGTGCTEGHTGTSAAAPLAAGMIALMLQVRPCLTWRDVQHIIVFTATRYEDRRAEWVTNEAGFSHSHQHGFGLLNAWRLVNAAKIWTSVPYLASYVSPVLKENKAIPQSPRSLEVLWNVSRMDLEMSGLKTLEHVAVTVSITHPRRGSLELKLFCPSGMMSLIGAPRSMDSDPNGFNDWTFSTVRCWGERARGTYRLVIRDVGDESFQVGILRQWQLTLYGSVWSAVDIRDRQRLLESAMSGKYLHDDFALPCPPGLKIPEEDGYTITPNTLKT
B2: Recombinant human PC4 (protein)
chain: SVVVPTDPWFSKQWYMNSEAQPDLSILQAWSQGLSGQGIVVSVLDDGIEKDHPDLWANYDPLASYDFNDYDPDPQPRYTPSKENRHGTRCAGEVAAMANNGFCGVGVAFNARIGGVRMLDGTITDVIEAQSLSLQPQHIHIYSASWGPEDDGRTVDGPGILTREAFRRGVTKGRGGLGTLFIWASGNGGLHYDNCNCDGYTNSIHTLSVGSTTQQGRVPWYSEACASTLTTTYSSGVATDPQIVTTDLHHGCTDQHTGTSASAPLAAGMIALALEANPFLTWRDMQHLVVRASKPAHLQAEDWRTNGVGRQVSHHYGYGLLDAGLLVDTARTWLPTQPQRKCAVRVQSRPTPILPLIYIRENVSACAGLHNSIRSLEHVQAQLTLSYSRRGDLEISLTSPMGTRSTLVAIRPLDVSTEGYNNWVFMSTHFWDENPQGVWTLGLENKGYYFNTGTLYRYTLLLYGTAEDMTARPTGPQVTSSACVQRDTEGLCQACDGPAYILGQLCLAYCPPRFFNHTRLVTAGPGHTAAPALRVCSSCHASCYTCRGGSPRDCTSCPPSSTLDQQQGSCMGPTTPDSRPRLRAAACPHHRCPAS
B3: Recombinant human PC5/6 (protein)
chain: DYDFSRAQSTYFNDPKWPSMWYMHCSDNTHPCQSDMNIEGAWKRGYTGKNIVVTILDDGIERTHPDLMQNYDALASCDVNGNDLDPMPRYDASNENKHGTRCAGEVAAAANNSHCTVGIAFNAKIGGVRMLDGDVTDMVEAKSVSFNPQHVHIYSASWGPDDDGKTVDGPAPLTRQAFENGVRMGRRGLGSVFVWASGNGGRSKDHCSCDGYTNSIYTISISSTAESGKKPWYLEECSSTLATTYSSGESYDKKIITTDLRQRCTDNHTGTSASAPMAAGIIALALEANPFLTWRDVQHVIVRTSRAGHLNANDWKTNAAGFKVSHLYGFGLMDAEAMVMEAEKWTTVPRQHVCVESTDRQIKTIRPNSAVRSIYKASGCSDNPNRHVNYLEHVVVRITITHPRRGDLAIYLTSPSGTRSQLLANRLFDHSMEGFKNWEFMTIHCWGERAAGDWVLEVYDTPSQLRNFKTPGKLKEWSLVLYGTSVQPYSPTNEFPKVERFRYSRVEDPTDDYGTEDYAGPCDPECSEVGCDGPGPDHCNDCLHYYYKLKNNTRICVSSCPPGHYHADKKRCRKCAPNCESCFGSHGDQCMSCKYGYFLNEETNSCVTHCPDGSYQDTKKNLCRKCSENCKTCTEFHNCTECRDGLSLQGSRCSVSCEDGRYFNGQDCQPCHRFCATCAGAGADGCINCTEGYFMEDGRCVQSCSISYYFDHSSENGYKSCKKCDISCLTCNGPGFKNCTSCPSGYLLDLGMCQMGAICKDATEESWAEGGFCMLVKKNNLCQRKVLQQLCCKTCTFQG
B4: Recombinant rat PACE4 (protein)
chain: QARSDSLYFNDPIWSNMWYMHCADKNSRCRSEMNVQAAWKRGYTGKNVVVTILDDGIERNHPDLAPNYDSYASYDVNGNDYDPSPRYDASNENKHGTRCAGEVAASANNSYCIVGIAYNAKIGGIRMLDGDVTDVVEAKSLGIRPNYIDIYSASWGPDDDGKTVDGPGRLAKQAFEYGIKKGRQGLGSIFVWASGNGGREGDHCSCDGYTNSIYTISVSSTTENGHKPWYLEECASTLATTYSSGAFYERKIVTTDLRQRCTDGHTGTSVSAPMVAGIIALALEANNQLTWRDVQHLLVKTSRPAHLKASDWKVNGAGHKVSHLYGFGLVDAEALVLEARKWTAVPSQHMCVATADKRPRSIPVVQVLRTTALTNACADHSDQRVVYLEHVVVRISISHPRRGDLQIHLISPSGTKSQLLAKRLLDFSNEGFTNWEFMTVHCWGEKAEGEWTLEVQDIPSQVRNPEKQGKLKEWSLILYGTAEHPYRTFSSHQSRSRMLELSVPEQEPLKAEGPPPQAETPEEEEEYTGVCHPECGDKGCDGPSADQCLNCVHFSLGNSKTNRKCVSECPLGYFGDTAARRCRRCHKGCETCTGRSPTQCLSCRRGFYHHQETNTCVTLCPAGLYADESQRLCLRCHPSCQKCVDEPEKSTVCKEGFSLARGSCIPDCEPGTYFDSELIRCGECHHTCRTCVGPSREECIHCAKSFHFQDWKCVPACGEGFYPEEMPGLPHKVCRRCDENCLSCEGSSRNCSRCKAGFTQLGTSCITNHTCSNADETFCEMVKSNRLCERKLFIQFCCRTCLLAG

How the values were obtained:
[1] = target: recombinant H5 precursor (HA0)
[2] = target: Anthrax Protective Antigen-83 (PA83), P13423
Chain of Anthrax Protective Antigen-83 (PA83), P13423 (P13423 whole entry, looked up): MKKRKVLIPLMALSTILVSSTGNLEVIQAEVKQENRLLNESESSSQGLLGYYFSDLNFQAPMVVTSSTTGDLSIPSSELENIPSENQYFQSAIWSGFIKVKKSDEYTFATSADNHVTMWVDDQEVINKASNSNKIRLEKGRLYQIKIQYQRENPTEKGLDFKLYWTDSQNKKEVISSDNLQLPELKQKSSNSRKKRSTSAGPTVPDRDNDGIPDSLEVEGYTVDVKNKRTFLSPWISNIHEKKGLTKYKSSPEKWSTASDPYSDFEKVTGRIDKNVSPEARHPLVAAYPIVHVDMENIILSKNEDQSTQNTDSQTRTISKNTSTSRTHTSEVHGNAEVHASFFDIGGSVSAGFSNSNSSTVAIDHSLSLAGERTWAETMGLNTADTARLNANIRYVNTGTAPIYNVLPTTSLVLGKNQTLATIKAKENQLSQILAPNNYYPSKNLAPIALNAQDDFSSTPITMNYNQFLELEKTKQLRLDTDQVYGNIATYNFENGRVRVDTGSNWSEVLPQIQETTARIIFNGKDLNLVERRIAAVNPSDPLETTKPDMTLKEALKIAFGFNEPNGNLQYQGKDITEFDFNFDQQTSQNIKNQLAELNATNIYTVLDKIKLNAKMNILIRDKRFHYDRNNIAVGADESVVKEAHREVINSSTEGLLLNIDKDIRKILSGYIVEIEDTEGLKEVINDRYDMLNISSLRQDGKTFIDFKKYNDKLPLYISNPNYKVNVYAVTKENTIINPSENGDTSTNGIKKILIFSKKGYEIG

[3] = target: T1, Pseudomonas exotoxin A (PEx), P11439

Protein	in vitro cleavage of biotin-labeled substrate (Western blot) [1]	in vitro cleavage of biotin-labeled substrate (Western blot) [2]	in vitro cleavage at pH 5.5 (Western blot) [3]
B1	other PCs were less efficient	PACE4 and PC7 were less effective	
B2	other PCs were less efficient		readily processed
B3	efficiently cleaved		readily processed
B4	other PCs were less efficient	PACE4 and PC7 were less effective	
